# Assay results: article PMC5726854
# Key:
# [1] = target: E. coli ribosomes (E. coli); test: FRAP (diffusion coefficient in living cells); E. coli cytoplasm, 30°C, 0.28 Osm; fraction bound from the effective diffusion coefficient (Equation 1); Kd per binding site from Equation 2 with 660 µM binding sites assumed
# [2] = target: Hfx. volcanii ribosomes (Haloferax volcanii (endogenous in H1895)); test: FRAP (diffusion coefficient in living cells); Hfx. volcanii cytoplasm, 30°C; fraction bound from the effective diffusion coefficient; Kd per binding site with the ribosome concentration assumed as in E. coli
# [3] = target: L. lactis ribosomes (Lactococcus lactis (endogenous in NZ9000)); test: FRAP (diffusion coefficient in living cells); L. lactis cytoplasm, 30°C; fraction bound from the effective diffusion coefficient; Kd per binding site with the ribosome concentration assumed as in E. coli
substance,measurement,setting,value
+25 GFP,Kd,[1],6.7 µM
same,fraction bound,[1],0.99
+25 GFP (expressed in Hfx. volcanii),Kd,[2],155 µM
same,fraction bound,[2],0.81
+25 GFP (expressed in L. lactis),Kd,[3],65 µM
